No end group written: not given here.
Target: purified recombinant Sap9 (C. albicans secreted aspartic protease 9) (Candida albicans)
Experiment: cell-based or functional assay

Binder	intact peptide remaining after 2 h at 37 C with 3.13 ug/mL Sap9 (gel densitometry) [%]	intact peptide remaining after 2 h with 6.25 ug/mL Sap9 [%]
DSHAKRHHGYKRKFHELHHSHRGY [Hst-5 synthetic peptide K17L]	77	> 60
DSHAKRHHGYRRKFHEKHHSHRGY [Hst-5 synthetic peptide K11R]		20
DSHARRHHGYKRKFHEKHHSHRGY [Hst-5 synthetic peptide K5R]		4.5
DSHAKRHHGYKRKFHEKHHSHRGY (also: hydrochloride salt) [parent Hst-5 peptide (Histatin-5)]	47	
DSHAKRHHGYKRKFHERHHSHRGY [Hst-5 synthetic peptide K17R]	82	> 60

From US20170291930A1 (UNIVERSITY OF MARYLAND BALTIMORE, published 2017)
